Experimental data taken from patent publication US20060177440A1 (published 2006).
Residue numbers refer to the chain shown, from its start.

T1: human Rh(D) antigen (human, UniProt Q02161 2-417)
T1 construct: whole, on cells; also called wt; wild-type Rh(D) on Rh(D)-positive RBCs
T1 sequence (looked up): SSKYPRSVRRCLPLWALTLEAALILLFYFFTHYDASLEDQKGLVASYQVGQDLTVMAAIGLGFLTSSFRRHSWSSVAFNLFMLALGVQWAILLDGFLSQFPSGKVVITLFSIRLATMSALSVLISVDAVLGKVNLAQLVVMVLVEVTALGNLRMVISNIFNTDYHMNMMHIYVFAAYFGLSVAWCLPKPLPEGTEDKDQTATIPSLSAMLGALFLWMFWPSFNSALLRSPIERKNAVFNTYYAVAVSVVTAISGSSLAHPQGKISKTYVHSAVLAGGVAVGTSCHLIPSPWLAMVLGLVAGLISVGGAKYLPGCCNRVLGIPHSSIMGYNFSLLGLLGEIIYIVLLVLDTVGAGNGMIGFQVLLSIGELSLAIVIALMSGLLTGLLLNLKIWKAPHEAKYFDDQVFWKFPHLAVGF

B1: SH17 (Fab, V domains shown)
VH: EVQLLESGGGLVQPGGSLRLSCGASGIPFVSSWMAWVRQAPGKGLEWVANIKQDGSKKNYVDSVEGRFTISRDNAKNSLYLQMDSLRAEDTRIYYCARDSLTCFDYWGQGALVTVSS
VL: AELQDPVVSVALGQTVRITCQGDGLRSYYASWYQQKPGQAPKLVMYGRNNRPSGIPGRFSGSSSGQTAALTITGTQAEDEADYYCQSRATSGNPVVFGGGTKLTVL
notes: Fab/phage
B2: SH13 (Fab, V domains shown)
VH: EVQLLESGGGVVQPGRSLRLSCAASGFTFSSYGMHWVRQAPGKGLEWVAVVYYDGSNKHYSDSVKGRFTISRDNSKNTLYLQMDSLRAEDTAVYYCARERNFRSGYSRYYYGMDVWGPGTTVTVSS
VL: not shown
notes: Fab/phage
B3: SH56 (Fab, V domains shown)
VH: B2 VH with S71F
VL: AELTQSPSSLSASVGDRVTITCRASQSISRYLNWYQQKPGKAPKLLIYAASSLQSGVPSRFSGSGSGTDFALTISSLLPEDFATYYCQQGYSTPPYSFGQGTKLEIKR
notes: Fab/phage

Molecular target: T1, human Rh(D) antigen
Assay: Fab/phage agglutination (anti-M13)
Method: Following a one-hour incubation at 37° C., the RBCs were washed 3 times with 2 ml of cold PBS to remove unbound antibody. The resulting RBC pellets were resuspended in 100 μl of a 10 μg/ml solution of sheep anti-M13 antibody (5 Prime-3 Prime, Boulder, Colo.) for Fab/phage experiments or goat anti-human κ or λ light chain antibody (Tago, Burlingame, Calif.) for γ₁κ or γ₁λ soluble Fab experiments, respectively. The RBC suspensions were transferred to the round-bottomed wells of a 96-well microplate and left undisturbed for […]. Negative reactions show sharp ˜2 millimeter diameter RBC spots whereas the RBCs in agglutinated wells form a thin carpet coating the entire floor of the well (Siegel et al., 1997, J. Immunol. Meth. 206:73). Agglutination titers for recombinant antibodies were determined by performing serial 2-fold dilutions in 1% BSA/PBS.
Fifty-six randomly chosen colonies were selected, and monoclonal Fab/phage preparations were separately produced from each of these individual colonies, using the methods described herein in Example 1. Rh(D) specificity was determined by indirect agglutination using anti-M13 antibody, as described herein in Examples 1 and 2.

Binder	binding result
B1	binds
B2	binds
B3	binds
